Assay results reported in the supplement of paper PMC9732359.
± gives the uncertainty stated by the source.

Experiment: protein stability index of a GFP-peptide fusion (yeast GPS) (PSI 1-4); higher = more stable; sorted into four equal gates, so the index is relative within each strain
Summary of the method: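 Plasmids isolated from each sorting gate were PCR-amplified and Illumina-sequenced, and barcodes assigned the reads to strains. The gates, four of equal size, were set by GFP/Cherry fluorescence ratio on mid-log cultures in leucine-free medium. These cultures were yeast carrying a pooled library of tiled 17-residue yeast protein peptides fused downstream of GFP on a plasmid that also expresses Cherry. The protein stability index is the sum of every gate's read frequency times its gate number.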

Row | Sequence | protein stability index (doa10∆) | protein stability index (pdr5∆) | protein stability index (san1∆) | protein stability index (ubr1∆)
1 | FVQLCEMGYLIQISKLH [RPC82] | 1.74 ± 0.05 | 1.95 ± 0.064 | 1.77 ± 0.1 | 1.96 ± 0.058
2 | DEKKDSDSSKPAFSFGT [YJL041W/NSP1] | 2.75 ± 0.076 | 2.49 ± 0.068 | 3.07 ± 0.067 | 2.97 ± 0.042
3 | FVSRIPIMFQDFDDSTA [IRR1] | 2.1 ± 0.04 | 1.96 ± 0.042 | 1.69 ± 0.053 | 2 ± 0.03
4 | HHIHHFEKKELQEKFLN [IRR1] | 1.72 ± 0.035 | 1.61 ± 0.043 | 1.87 ± 0.068 | 1.56 ± 0.037
5 | HHELIKVKHDSQPFIKF [SSN2] | 3.14 ± 0.085 | 2.71 ± 0.099 | 2.86 ± 0.11 | 2.88 ± 0.06
6 | IKLDRWLMEGSYQKAWD [RPN12] | 2.72 ± 0.11 | 2.8 ± 0.098 | 2.9 ± 0.11 | 2.68 ± 0.11
7 | KAPNAVVITFEKEDHTL [RPB11] | 1.26 ± 0.077 | 2.7 ± 0.12 | 2.19 ± 0.091 | 1.97 ± 0.076
8 | NPHDGVNSIALFVGTDR [RPN14] | 2.08 ± 0.14 | 2.42 ± 0.096 | 2.33 ± 0.076 | 2.99 ± 0.11
9 | VKEQTEAAKKSEKKAKK [RPL34A] | 3.36 ± 0.13 | 3.48 ± 0.094 | 3.18 ± 0.038 | 3.31 ± 0.067
10 | YSSILGNSFNKSSNDTI [YCG1] | 2.5 ± 0.048 | 2.77 ± 0.042 | 2.62 ± 0.037 | 2.81 ± 0.049
11 | NTNNNNSTGHSSNTNNN [SWI1] | 2.63 ± 0.049 | 2.29 ± 0.05 | 2.41 ± 0.058 | 1.93 ± 0.05
12 | FRHFIGIKAKHDKNIQK [ISW2] | 2.68 ± 0.089 | 2.6 ± 0.085 | 2.48 ± 0.06 | 2.51 ± 0.078
13 | FITKHLPLLILENSSRS [NUT1] | 1.36 ± 0.098 | 1.41 ± 0.067 | 1.12 ± 0.2 | 1.14 ± 0.032
14 | DDTKNQDSMSKGTGEES [YGR119C/NUP57] | 3.16 ± 0.077 | 3.14 ± 0.16 | 3.21 ± 0.082 | 3.42 ± 0.057
15 | MAISKNLPILKNHFRKH [RPL13A] | 2.89 ± 0.1 | 2.89 ± 0.079 | 2.87 ± 0.081 | 2.54 ± 0.19
16 | SKNFNVILASSLNEVGT [YML103C/NUP188] | 2.44 ± 0.045 | 2.42 ± 0.043 | 2.56 ± 0.051 | 2.39 ± 0.036
17 | KNMGLVPMKEENLEESF [SSN2] | 3.07 ± 0.2 | 3.38 ± 0.13 | 2.95 ± 0.17 | –
18 | TLEQKVNLENPIPIAVL [FAS1] | 1.35 ± 0.048 | 1.4 ± 0.041 | 1.57 ± 0.095 | 1.39 ± 0.028
19 | DFQIDGNIFELLSDTFE [RRI2] | 2.04 ± 0.095 | 2.47 ± 0.077 | 2.95 ± 0.11 | 3.16 ± 0.17
20 | LSKLEKALDRHEFFIAN [SRP68] | 2.66 ± 0.055 | 2.61 ± 0.045 | 2.55 ± 0.049 | 2.64 ± 0.047
21 | AGEFGLKNKKEIYRISF [RPS9A] | 2.58 ± 0.065 | 2.95 ± 0.089 | 3.08 ± 0.14 | 2.77 ± 0.066
22 | IVDFTLPPPPPPPGLDE [PRP8] | 3.15 ± 0.05 | 3.1 ± 0.048 | 3.2 ± 0.038 | 3.14 ± 0.039
23 | QFCGIKERNSLKKLKAM [BRR2] | 3 ± 0.23 | 3.25 ± 0.12 | 2.25 ± 0.27 | 2.99 ± 0.11
24 | GLYKMMEERDGAKFENI [AAR2] | 1.49 ± 0.19 | 1.87 ± 0.12 | 1.68 ± 0.2 | 1.74 ± 0.056
25 | EKWLLNQIPVTEHSKVT [SRB6] | 1.9 ± 0.051 | 2.6 ± 0.068 | 1.99 ± 0.12 | 2.37 ± 0.057

Row | Sequence | protein stability index (doa10∆) | protein stability index (pdr5∆) | protein stability index (san1∆) | protein stability index (ubr1∆)
26 | GTSQNYGTATADDADIE [MED1] | 3.22 ± 0.071 | 3.29 ± 0.073 | 3.08 ± 0.058 | 3.24 ± 0.061
27 | VNAMRVLYYRDARSSRN [PRE4] | – | 3.16 ± 0.23 | 2.57 ± 0.26 | –
28 | FLLSAMTMASKSLEVVN [NSL1] | 1.4 ± 0.08 | 1.45 ± 0.069 | 1.54 ± 0.15 | 1.61 ± 0.047
29 | LHGLRSFYDAIFFNIPL [YJL039C/NUP192] | 2.61 ± 0.039 | 2.24 ± 0.042 | 2.309 ± 0.022 | 1.9 ± 0.034
30 | QYIRTLVSEARTLWPEF [SSN8] | 2.61 ± 0.052 | 2.67 ± 0.052 | 2.39 ± 0.06 | 2.42 ± 0.046
31 | PAAESKIFTPNLLQISA [SNF5] | 1.72 ± 0.12 | 2.04 ± 0.11 | 2.09 ± 0.14 | 1.55 ± 0.099
32 | FERLVPRGTAKLIIHRK [SMC3] | 3.01 ± 0.12 | 2.98 ± 0.12 | – | 2.86 ± 0.03
33 | RDLILTEYGRKYNVNIS [PRP8] | 2.2 ± 0.18 | 2.42 ± 0.098 | 3.14 ± 0.23 | 2.28 ± 0.059
34 | KYLKKRKIGISIDDHPY [RPC31] | 1.41 ± 0.075 | 1.33 ± 0.081 | 1.77 ± 0.099 | 1.74 ± 0.051
35 | AAAEIADEPVKASLLLH [FAS2] | 3.1 ± 0.18 | 3.01 ± 0.24 | 2.75 ± 0.19 | 1.17 ± 0.21
36 | IFSYGPHIQKMLSILEI [POP6] | 2.27 ± 0.12 | 1.93 ± 0.067 | 2.56 ± 0.15 | 2.24 ± 0.073
37 | GPKLRASDLKINELFKK [RPN8] | 1.98 ± 0.12 | 1.42 ± 0.11 | 1.1 ± 0.13 | 1.08 ± 0.13
38 | DNDFIINDFKKIGRENE [POP5] | 3.33 ± 0.071 | 3.38 ± 0.072 | 3.3 ± 0.057 | 3.35 ± 0.047
39 | EFENKFQNSYKPALKVS [YMR129W/POM152] | – | 3.11 ± 0.22 | 3.04 ± 0.2 | –
40 | EQRHLKRELKRAQEEVK [RPT3] | 3.13 ± 0.077 | 3.37 ± 0.12 | 2.95 ± 0.089 | 3.17 ± 0.078
41 | GGNGPEDFQQHEQIRRK [RPO26] | 3.3 ± 0.1 | 3.39 ± 0.072 | 3.09 ± 0.089 | 3.44 ± 0.083
42 | KRQYVKQFLTKDLKFPL [RPL20A] | 3 ± 0.055 | 2.94 ± 0.061 | 2.76 ± 0.063 | 2.83 ± 0.04
43 | TRSALKLVRESELLGGT [QCR2] | 2.51 ± 0.29 | 2.5 ± 0.24 | 2.21 ± 0.16 | –
44 | FKRDLLREKEDKKNSSD [YJL039C/NUP192] | 3.38 ± 0.13 | 2.92 ± 0.18 | 3.23 ± 0.064 | 3 ± 0.14
45 | NTNNNNNPANNTNNNNS [SWI1] | 3.06 ± 0.033 | 3 ± 0.03 | 3.344 ± 0.026 | 3.435 ± 0.026
46 | TPNVREEKQKSYKFPRG [PUP1] | 3.29 ± 0.13 | 2.74 ± 0.12 | 3.13 ± 0.095 | –
47 | VMESGAKGCEVVVSGKL [RPS3] | 3.04 ± 0.23 | – | 3 ± 0.24 | –
48 | QGEEEELIALNLSEARL [RPB4] | 3.22 ± 0.12 | 3.53 ± 0.14 | 3.22 ± 0.078 | 3.26 ± 0.095
49 | AINPGRVAASFSQEALQ [FAS1] | 2.05 ± 0.15 | 2.53 ± 0.15 | 2.63 ± 0.13 | 1.98 ± 0.098
50 | FNLNLPPSSFGRSHTRN [REC8] | 3.35 ± 0.11 | 2.51 ± 0.1 | 3.04 ± 0.058 | 3.27 ± 0.19
